These results are taken from patent USRE47150 (Bayer, dated 2018).

Where a chain is given by its changes, count along the chain named. Names and notes keep the numbering of the source.

B1: 4B7 HC N32D+D62R+Y112D/LC M4L+S32R+D33F+N35I+D97T (Fab, V domains shown)
VH: QVQLQQSGPGLVKPSQTLSLTCAISGDSVSSDSAAWSWIRQSPGRGLEWLGIIYKRSKWYNRYAVSVKSRITINPDTSKNQFSLQLNSVTPEDTAVYYCARWHSDKHWGFDDWGQGTLVTVSS
VL: DIVLTQSPLSLPVTPGEPASISCRSSQSLVFRFGITYLNWYLQKPGQSPQLLIYKGSNRASGVPDRFSGSGSGTDFTLKISRVEAEDVGVYYCQQYTSYPLTFGQGTKVEIKR
B2: 4B7 HC N32D+I53T+D62R+Y112D/LC S32R+D33F+N35I+D97T (Fab, V domains shown)
VH: B1 VH with I53T
VL: B1 VL with L4M
B3: 4B7 HC Q1E+N32D+G44S+K55Y+D62R+Y112D/LC S32R+D33F+N35I+D97T (Fab, V domains shown)
VH: B1 VH with Q1E, G44S, K55Y
VL: B1 VL with L4M
B4: 4B7 HC N32D+D62R+Y112D/LC S32R+D33F+N35I+D97T+S98H (Fab, V domains shown)
VH: B1 VH
VL: B1 VL with L4M, S98H
B5: 4B7 HC N32D+K55Y+D62R+Y112D/LC S32R+D33F+N35I+D97T (Fab, V domains shown)
VH: B1 VH with K55Y
VL: B1 VL with L4M
B6: 4B7 HC N32D+D62S+H107M+Y112D/LC S32R+D33R+N35T (Fab, V domains shown)
VH: B1 VH with R62S, H107M
VL: B1 VL with L4M, F33R, I35T, T97D
B7: 4B7 HC Q1E+N32D+G44S+K55Y+D62R+Y112D/LC V30L+S32R+D33F+N35I+T36N+D97T (Fab, V domains shown)
VH: B1 VH with Q1E, G44S, K55Y
VL: B1 VL with L4M, V30L, T36N
B8: 4B7 HC N32D+S37N+D62R+Y112D/LC S32R+D33F+N35I+D97T (Fab, V domains shown)
VH: B1 VH with S37N
VL: B1 VL with L4M
B9: 4B7 HC N32D+D62R+Y112D/LC S32R+D33F+N35I+K55L+D97T (Fab, V domains shown)
VH: B1 VH
VL: B1 VL with L4M, K55L
B10: 4B7 HC N32D+D62R+Y112D/LC S32R+D33F+N35I+N39D+D97T (Fab, V domains shown)
VH: B1 VH
VL: B1 VL with L4M, N39D
B11: 4B7 HC N32D+D62R+Y112D/LC V30L+S32R+N35I+T36N (Fab, V domains shown)
VH: B1 VH
VL: B1 VL with L4M, V30L, F33D, T36N, T97D
B12: 4B7 HC N32D+D62R+Y112D/LC S32R+D33R (Fab, V domains shown)
VH: B1 VH
VL: B1 VL with L4M, F33R, I35N, T97D
B13: 4B7 HC N32D+G44S+D62R+Y112D/LC S32R+D33F+N35I+D97T (Fab, V domains shown)
VH: B1 VH with G44S
VL: B1 VL with L4M
B14: 4B7 HC N32D+D62R+Y112D/LC S32R+D33F+N35I+A60D+D97T (Fab, V domains shown)
VH: B1 VH
VL: B1 VL with L4M, A60D
B15: 4B7 HC N32D+D62R+Y112D/LC S32R+D33F+N35I+T36N+D97T (Fab, V domains shown)
VH: B1 VH
VL: B1 VL with L4M, T36N
B16: 4B7 HC N32D+D62R+Y112D/LC S32R+D33F+N35I+K44R+D97T (Fab, V domains shown)
VH: B1 VH
VL: B1 VL with L4M, K44R
B17: 4B7 HC N32D+D62R+Y112D/LC S32R+D33F+N35I+L51R+D97T (Fab, V domains shown)
VH: B1 VH
VL: B1 VL with L4M, L51R
B18: 4B7 HC N32D+D62R+Y112D/LC S32R+D33F+N35I+L42Q+D97T (Fab, V domains shown)
VH: B1 VH
VL: B1 VL with L4M, L42Q
B19: 4B7 HC N32D+D62R+Y112D/LC S32R+D33F+N35I+Q50R+D97T (Fab, V domains shown)
VH: B1 VH
VL: B1 VL with L4M, Q50R
B20: 4B7 HC N32D+D62R+Y112D/LC V30L+S32R+D33F+N35I+D97T (Fab, V domains shown)
VH: B1 VH
VL: B1 VL with L4M, V30L
B21: 4B7 HC N32D+K55Y+D62Q+Y112D/LC F31I+D33F+N35I (Fab, V domains shown)
VH: B1 VH with K55Y, R62Q
VL: B1 VL with L4M, F31I, R32S, T97D
B22: 4B7 HC Q1E+N32D+D62R+Y112D/LC S32R+D33F+N35I+D97T (Fab, V domains shown)
VH: B1 VH with Q1E
VL: B1 VL with L4M
B23: 4B7 HC N32D+I53T+D62Q+Y112D/LC F31I+D33F+N35I (Fab, V domains shown)
VH: B1 VH with I53T, R62Q
VL: B1 VL with L4M, F31I, R32S, T97D
B24: 4B7 HC N32D+D62R+Y112D/LC V30L+S32R+D33F+N35I+T36N+D97T (Fab, V domains shown)
VH: B1 VH
VL: B1 VL with L4M, V30L, T36N
B25: 4B7 HC Q1E+N32D+G44S+K55Y+D62R+Y112D/LC V30L+S32R+N35I+T36N (Fab, V domains shown)
VH: B1 VH with Q1E, G44S, K55Y
VL: B1 VL with L4M, V30L, F33D, T36N, T97D
B26: 4B7 HC N32D+D62R+Y112D/LC S32R+D33F+N35I+G56V+D97T (Fab, V domains shown)
VH: B1 VH
VL: B1 VL with L4M, G56V
B27: 2A8 HC G33A+S35D+S55R+K99L/LC Y48F+N51V+D91W (Fab, V domains shown)
VH: QVQLVESGGGLVQPGGSLRLSCAASGFTFRSYAMDWVRQAPGKGLEWVSSIRGSRSSTYYADSVKGRFTISRDNSKNTLYLQMNSLRAEDTAVYYCARLYRYWFDYWGQGTLVTVSS
VL: DIELTQPPSVSVAPGQTARISCSGDNLRNYYAHWYQQKPGQAPVVVIFYDVNRPSGIPERFSGSNSGNTATLTISGTQAEDEADYYCQSWWDGVPVFGGGTKLTVLG
B28: 2A8 HC I51D+S54F+K99L/LC D91W (Fab, V domains shown)
VH: B27 VH with A33G, D35S, I51D, S54F, R55S
VL: B27 VL with F48Y, V51N
B29: 2A8 HC G33P+S35D+S54F+K99L/LC Y48F+N52G (Fab, V domains shown)
VH: B27 VH with A33P, S54F, R55S
VL: B27 VL with V51N, N52G, W91D
B30: 2A8 HC M34K+S35D+S55R+K99L/LC Y48F+N51V+D91W (Fab, V domains shown)
VH: B27 VH with A33G, M34K
VL: B27 VL
B31: 2A8 HC G33P+I51D+S54F/LC Y48F+N51V+V96W (Fab, V domains shown)
VH: B27 VH with A33P, D35S, I51D, S54F, R55S, L99K
VL: B27 VL with W91D, V96W
B32: 2A8 HC M34I+S35D+S55R+K99L/LC Y48F+N51V+D91W (Fab, V domains shown)
VH: B27 VH with A33G, M34I
VL: B27 VL

One assay addresses T1, mouse tissue factor pathway inhibitor (TFPI) (mouse, UniProt O54819 29-289, limits assumed).
T1 construct: bought; also called mTFPI; murine TFPI
T1 sequence (looked up): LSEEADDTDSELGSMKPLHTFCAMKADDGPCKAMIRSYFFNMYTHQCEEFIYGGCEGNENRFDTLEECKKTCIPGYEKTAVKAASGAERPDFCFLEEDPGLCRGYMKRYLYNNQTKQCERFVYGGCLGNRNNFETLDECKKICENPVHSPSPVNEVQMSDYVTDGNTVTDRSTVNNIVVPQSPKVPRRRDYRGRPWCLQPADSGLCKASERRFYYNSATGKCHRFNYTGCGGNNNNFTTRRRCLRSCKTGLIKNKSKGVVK
Put plainly: competitive ELISA. (In general: In an ELISA, binding on a coated surface is turned into a signal by an enzyme label.)
With B1, the variant/HC_D62R came to 23.9 ratio.

In the case of B2, the variant/HC_D62R is 8.3 ratio.

The molecule B3 registered a variant/HC_D62R of 45.1 ratio.

B4: the variant/HC_D62R was 7.1 ratio.

B5 displayed a variant/HC_D62R of 42.8 ratio.

B6 returned a variant/HC_D62R of 20.3 ratio.

B7 had a variant/HC_D62R of 29.4 ratio.

On to B8, for which the binding result was “no binding”.

For the molecule B9, the binding result is “no binding”.

B10: the binding result is “no binding”.

In turn, B11 returned a variant/HC_D62R of 7 ratio.

Turning to B12, the variant/HC_D62R worked out at 7.2 ratio.

Consider B13, for which the variant/HC_D62R came out at 41.5 ratio.

In the case of B14, the variant/HC_D62R came out at 14.3 ratio.

The molecule B15 had a variant/HC_D62R of 35.4 ratio.

For the molecule B16, the variant/HC_D62R was 40.1 ratio.

Regarding B17, the variant/HC_D62R turned out to be 5.2 ratio.

For the molecule B18, the variant/HC_D62R was determined as 43 ratio.

For B19, the variant/HC_D62R stood at 39.4 ratio.

On to B20, for which the variant/HC_D62R is 42.2 ratio.

Regarding B21, the variant/HC_D62R stood at 26.2 ratio.

Turning to B22, the variant/HC_D62R came to 39.8 ratio.

Consider B23, for which the binding result is “no binding”.

The molecule B24 displayed a variant/HC_D62R of 28.4 ratio.

B25 had a variant/HC_D62R of 9.9 ratio.

For B26, the binding result is given as “no binding”.

The target of another assay is T2, human tissue factor pathway inhibitor (TFPI) (human, UniProt P10646 29-304, limits assumed).
T2 construct: bought; also called hTFPI; human TFPI
T2 sequence (looked up): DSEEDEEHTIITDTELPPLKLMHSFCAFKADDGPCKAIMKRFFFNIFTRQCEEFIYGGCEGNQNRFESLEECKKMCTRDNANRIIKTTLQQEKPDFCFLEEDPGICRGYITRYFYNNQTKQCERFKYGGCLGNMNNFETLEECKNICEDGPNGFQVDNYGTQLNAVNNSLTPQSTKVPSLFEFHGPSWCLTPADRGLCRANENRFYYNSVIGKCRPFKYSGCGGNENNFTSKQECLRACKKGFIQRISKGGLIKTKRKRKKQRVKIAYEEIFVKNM
Put plainly: competitive ELISA.
As for B1, the variant/HC_D62R was 21.3 ratio.

Molecule B2 yielded a variant/HC_D62R of 19.6 ratio.

Take B3: the variant/HC_D62R is 26.3 ratio.

B4 gave a variant/HC_D62R of 17.9 ratio.

In turn, B5 gave a variant/HC_D62R of 25.6 ratio.

Molecule B6 yielded a variant/HC_D62R of 19.6 ratio.

Molecule B7 showed a variant/HC_D62R of 20.4 ratio.

Take B8: the variant/HC_D62R was found to be 1.9 ratio.

In turn, B9 gave a variant/HC_D62R of 7.8 ratio.

Take B10: the variant/HC_D62R was determined as 1.3 ratio.

B11: the variant/HC_D62R was determined as 25 ratio.

On to B12, for which the variant/HC_D62R stood at 14.8 ratio.

Regarding B13, the variant/HC_D62R was 26.5 ratio.

In turn, B14 yielded a variant/HC_D62R of 19.1 ratio.

B15 came in with a variant/HC_D62R of 25.2 ratio.

Molecule B16 registered a variant/HC_D62R of 26 ratio.

For B17, the variant/HC_D62R was determined as 11.2 ratio.

In turn, B18 returned a variant/HC_D62R of 26.9 ratio.

Consider B19, for which the variant/HC_D62R worked out at 25.9 ratio.

B20 showed a variant/HC_D62R of 26.1 ratio.

Regarding B21, the variant/HC_D62R was 25.6 ratio.

With B22, the variant/HC_D62R was 26.7 ratio.

In the case of B23, the variant/HC_D62R worked out at 5.7 ratio.

Turning to B24, the variant/HC_D62R amounted to 23.9 ratio.

In turn, B25 yielded a variant/HC_D62R of 23 ratio.

As for B26, the variant/HC_D62R is 12.1 ratio.

A further assay deals with T1, mouse tissue factor pathway inhibitor …. In words: competitive ELISA. This is another data set of the same source.
On to B27, for which the variant/HC_K99L is 14.7 ratio.

Molecule B28 yielded a variant/HC_K99L of 5.3 ratio.

For the molecule B29, the variant/HC_K99L was 2.3 ratio.

Take B30: the variant/HC_K99L worked out at 11.6 ratio.

B31 gave a variant/HC_K99L of 0.4 ratio.

In turn, B32 yielded a variant/HC_K99L of 18.1 ratio.

The next assay addresses T2, human tissue factor pathway inhibitor …. Put plainly: competitive ELISA. This is another data set of the same source.
Take B27: the variant/HC_K99L turned out to be 16 ratio.

B28 returned a variant/HC_K99L of 6.2 ratio.

B29 had a variant/HC_K99L of 6.2 ratio.

B30: the variant/HC_K99L was determined as 11.2 ratio.

B31: the variant/HC_K99L came out at 0.6 ratio.

The molecule B32 showed a variant/HC_K99L of 19.6 ratio.
